According to publication PMC6659671:

How the values were obtained:
[1] = biological target: HisBamA S425C (E. coli) (UniProt P0A940); assay: cross-linking
[2] = biological target: HisBamA G781C (E. coli) (UniProt P0A940); assay: cross-linking
[3] = biological target: HisBamA G781C (E. coli) (UniProt P0A940); assay: cross-linking; kinetics of intermolecular disulfide-bond formation in intact cells; 0.2 mM 4-DPS on ice for 0, 2, 5, 15, 30, 60 and 90 min; quantitated from αStrepII immunoblots

Substance | percent disulfide-bond formation [1] [%] | percent disulfide-bond formation [2] [%] | K (rate constant of disulfide-bond formation, single-step fit) [3] [min⁻¹] | half-time of disulfide-bond formation [3] [min]
MBP−76EspP Y1298C (from UniProt Q7BSW5) | 28 |  |  | 
MBP−76EspP A1043C (from UniProt Q7BSW5) |  | 42 | 0.038 | 18.2
